The record followed here is patent publication US7521432B2, “Compositions and methods for identifying agents which regulate chromosomal stability, gene activation and aging” (priority 2000, dated 2009).

For data set [1], the system named is Asterina miniata immature oocytes. Kind of data set: Microinjection into immature starfish oocytes, oocyte maturation (GVBD, polar body extrusion). Conditions: for maturation and fertilization of injected egg: 10 μM 1-MA. Type of data set: cell-based. As to the method:
(§1) Asterina miniata gametes were collected and microinjections were performed as described previously (Carroll et al., 1999). Briefly, quantitative microinjection of Asterina miniata oocytes was performed at 16° C., using mercury-filled micropipets (Hiramoto, 1962; Kiehart, 1982; and see the information available at http://egg/uchc.edu/injection), allowing injection of precisely calibrated picoliter volumes into the oocytes and blastomeres. Injection volumes were 3% of the total cellular volume (for oocytes, 93 pL and for blastomeres, 47 pL). Buffer alone, purified O-acetylated ADP ribose or recombinant protein was injected into immature oocytes or one blastomere of a two cell stage embryo to a final concentration in the cytoplasm as indicated in the figure legends and Tables. 1-methyl adenine was from Sigma and was used at 10 μM.
Micro-injection assays were performed in starfish and sea urchin ooctyes. Historically echinoderm development has been a biochemically tractable and well-defined system to assess biological function of pruteins, bio-active compounds and for detailed analyses of the cell cycle. This system is attractive for its amenability to quantitative microinjection assays, cell cycle analyses, biochemical fractionation and microscopic imaging of eggs and early embryos. Initially, we hypothesized that if O-acetyl-ADP ribose produced by SIR2 was involved in SIR2's gene silencing ability, then micro-injection of O-acetyl-ADP ribose into a maturing oocyte should give rise to a phenotypic effect on the developing animal, perhaps through perturbations in normal gene expression patterns. Immature oocytes were micro-injected with HPLC-purified O-acetyl-ADP ribose or with a buffer control. The oocytes were allowed to mature by the addition of 1-methyladenine and assessed for developmental alterations.
Asterina miniata immature oocytes were microinjected with the amounts of O-acetyl ADP ribose in PBS. The maturation hormone 1-methyladenine was added (10 μM) 25-30 minutes post-injection. Oocytes were monitored for GVBD and polar body extrusion. […] The number of oocytes per treatment is given. Combined results of 3 separate experiments (3 batches of O-acetyl ADP ribose).
Asterina miniata immature oocytes were microinjected with the given enzymes in PBS. The maturation hormone 1-methyladenine was added (10 μM) 25-30 minutes post-injection. Oocytes were monitored for GVBD and polar body extrusion. […] The number of oocytes per treatment (n) is given. Data are from four separate batches of oocytes. All oocytes for a given treatment responded in the same way unless indicated otherwise (e.g. see 200 nM HST2 injection).

In data set [2] the test system is Asterina miniata blastomere of two cell stage embryo. The experiment in a line: Microinjection into one blastomere of two-cell stage embryo, early embryonic cell division. The class given is cell-based. Here is the method:
as §1
To examine whether these SIR2 enzymes caused any phenotypic effects on early embryonic cell division, HST2 or the R45A mutant were micro-injected into one cell of the two-cell stage embryos. Asterina miniata oocytes were matured by addition of the hormone 1-methyladenine and then fertilized. One cell zygotes were then placed in injection chambers. After the first cell division, one daughter blastomere was microinjected with the indicated enzyme (see table and figure below). Embryos were monitored for further cell divisions over time. The non-injected daughter blastomere served as the internal control in each experiment. […] Again, there was a clear dosage effect that paralleled the effect observed on oocyte maturation.
Asterina miniata oocytes were matured by addition of the hormone 1-methyladenine and then fertilized. One cell zygotes were then placed in injection chambers. After the first cell division, one daughter blastomere was microinjected with the indicated enzyme. Embryos were monitored for further cell divisions over time. The non-injected daughter blastomere served as the internal control in each experiment. The number of injected embryos per treatment is given (n). Data are from two separate batches of oocytes.

A further data set concerns the target acetyl-peptide (Saccharomyces cerevisiae, UniProt P53686, R45A). The experiment in a line: Catalytic efficiency of R45A mutant compared to wild type HST2. Type of data set: biochemical. Conditions: unpublished data. The source says: To complement these studies, we micro-injected active yeast HST2 and human SIR2 enzymes instead of O-acetyl-ADP ribose. We hypothesized that if acetylated protein substrates were available in the oocyte, then micro-injected enzyme would provide a more constant source of O-acetyl-ADP ribose. As a control, a catalytically impaired mutant of HST2 (R45A) was employed to ensure that any effects were due to the catalytic activity of the enzyme. The R45A mutant is >50-fold lower in catalytic efficiency (kcat and kcat/Km for acetyl-peptide) compared to wild type enzyme (unpublished data).

Setting [3] is: final conc 200 nM in blastomere.

Positions count from the first letter of the chain named. In names and notes the source's numbering stands. Several values for one entry are separate records, joined by “and”; a condition that tells them apart may be missing. Equal entries are not always repeated.

Sequence of acetyl-peptide (P53686 whole entry R45A): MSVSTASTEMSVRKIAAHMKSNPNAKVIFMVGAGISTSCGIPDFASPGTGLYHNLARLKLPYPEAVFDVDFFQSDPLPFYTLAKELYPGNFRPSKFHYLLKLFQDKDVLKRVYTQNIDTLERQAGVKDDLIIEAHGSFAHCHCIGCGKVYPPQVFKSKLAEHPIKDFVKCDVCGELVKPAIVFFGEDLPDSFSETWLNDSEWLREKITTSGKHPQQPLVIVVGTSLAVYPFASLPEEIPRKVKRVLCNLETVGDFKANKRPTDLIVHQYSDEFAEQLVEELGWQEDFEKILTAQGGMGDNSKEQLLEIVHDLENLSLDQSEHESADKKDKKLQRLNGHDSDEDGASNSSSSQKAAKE

B1: hSIRT2: human SIR2 enzyme (protein, UniProt Q8IXJ6 2-389, looked up)
NAD-dependent protein …: AEPDPSHPLETQAGKVQEAQDSDSDSEGGAAGGEADMDFLRNLFSQTLSLGSQKERLLDELTLEGVARYMQSERCRRVICLVGAGISTSAGIPDFRSPSTGLYDNLEKYHLPYPEAIFEISYFKKHPEPFFALAKELYPGQFKPTICHYFMRLLKDKGLLLRCYTQNIDTLERIAGLEQEDLVEAHGTFYTSHCVSASCRHEYPLSWMKEKIFSEVTPKCEDCQSLVKPDIVFFGESLPARFFSCMQSDFLKVDLLLVMGTSLQVQPFASLISKAPLSTPRLLINKEKAGQSDPFLGMIMGLGGGMDFDSKKAYRDVAWLGECDQGCLALAELLGWKKELEDLVRREHASIDAQSGAGVPNPSTSASPKKSPPPAKDEARTTEREKPQ
As for B1, the “effect on oocyte maturation” value in data set [1] (above 72 nM) is given as “complete block in maturation”. Moreover, the “Effects/Notes (oocyte maturation)” value in data set [1] (final conc 25 nM) is “no effect was observed”; in data set [1] (final conc 60 nM), 2 hr delay in GVBD and polar body extrusion and polar; in data set [1] (final conc 200 nM), “complete block”.

B2: HST2: yeast SIR2 homolog, recombinant histidine tagged full length NAD-dependent deacetylase (protein, UniProt P53686 2-357, looked up)
NAD-dependent protein …: SVSTASTEMSVRKIAAHMKSNPNAKVIFMVGAGISTSCGIPDFRSPGTGLYHNLARLKLPYPEAVFDVDFFQSDPLPFYTLAKELYPGNFRPSKFHYLLKLFQDKDVLKRVYTQNIDTLERQAGVKDDLIIEAHGSFAHCHCIGCGKVYPPQVFKSKLAEHPIKDFVKCDVCGELVKPAIVFFGEDLPDSFSETWLNDSEWLREKITTSGKHPQQPLVIVVGTSLAVYPFASLPEEIPRKVKRVLCNLETVGDFKANKRPTDLIVHQYSDEFAEQLVEELGWQEDFEKILTAQGGMGDNSKEQLLEIVHDLENLSLDQSEHESADKKDKKLQRLNGHDSDEDGASNSSSSQKAAKE
As for B2, the “maturation and fertilization of injected egg” value in data set [1] (200 nM final, fertilized 4 hours later, FIG. 10A) is “failed to mature”. Besides, the “injected eggs in chamber behaving the same way (failed to mature)” value in data set [1] (200 nM final, FIG. 10A) is recorded as 10 of 10. The “effect on oocyte maturation” value in data set [1] (above 72 nM) is “complete block in maturation”. For the same molecule, the “Effects/Notes (oocyte maturation)” value in data set [1] (final conc 25 nM) is “no effect was observed”; in data set [1] (final conc 60 nM), 2 hr delay in GVBD and polar body extrusion; in data set [1] (final conc 72 nM), “complete block”; in data set [1] (final conc 200 nM), “complete block in 9/10; 3 hr delay 1/10”. Moreover, the “development of injected cells” value in data set [2] (25 nM, most cells) is given as “developed normally”. Moreover, the “division of injected blastomere” value in data set [2] (200 nM, injected after complete cytokinesis, FIG. 10C) is reported as “divided once, then both daughters stopped”. Besides, the “effect on cell division of injected blastomere” value in data set [2] (at and above 72 nM) is recorded as “complete block in cell division either at the next or subsequent division”. In addition, the “Effects: 3rd cell division” value in data set [2] (final conc 25 nM in blastomere) is “Normal”; in data set [2] (final conc 72 nM in blastomere), “Complete”; in data set [2] (setting [3]), “Complete”. Also, the “Effects: Next cell division” value in data set [2] (final conc 25 nM in blastomere) is 4/5 normal and 1/5 as slight; in data set [2] (final conc 72 nM in blastomere), 4/10 slight and 6/10 no; in data set [2] (setting [3]) it was 2/7 slight and 5/7 no. The “Effects: other” value in data set [2] (final conc 25 nM in blastomere) is reported as “Normal”.

B3: HST2 R45A: catalytically impaired mutant of HST2 (R45A) (protein, UniProt P53686 2-357, looked up, variant R45A)
NAD-dependent protein …: B2 NAD-dependent protein … with R44A
Consider B3, for which, in data set [1] (fertilized four hours later, FIG. 10B), the “maturation and fertilization of injected egg” value was “matured and were fertilized normally”. The “injected eggs in chamber behaving the same way (matured, fertilized normally)” value in data set [1] (FIG. 10B) is 7 of 7. In data set [1] (any concentration from 25-200 nM), the “effect on oocyte maturation” value is given as “no observed effects”. Also, the “Effects/Notes (oocyte maturation)” value in data set [1] (final conc 25 nM), in data set [1] (final conc 60 nM), in data set [1] (final conc 72 nM) and in data set [1] (final conc 200 nM) was “no observed effect” each time. Also, the “phenotype of injected blastomere” value in data set [2] (any concentration) is given as “no phenotype”. For the same molecule, the “Effects: 3rd cell division” value in data set [2] (final conc 25 nM in blastomere), in data set [2] (final conc 72 nM in blastomere) and in data set [2] (setting [3]) was “Normal” in each case. The “Effects: Next cell division” value is reported as “Normal” in data set [2] (final conc 25 nM in blastomere), “Normal” in data set [2] (final conc 72 nM in blastomere) and “normal” in data set [2] (setting [3]). In addition, the “Effects: other” value in data set [2] (final conc 25 nM in blastomere), in data set [2] (final conc 72 nM in blastomere) and in data set [2] (setting [3]) was “Normal” each time. In addition, the “lower in catalytic efficiency (kcat and kcat/Km for acetyl-peptide) compared to wild type enzyme” value with acetyl-peptide is > 50 fold.
